Earlier results as cited in paper PMC3749945.
pKd: −log10 of the molar value.

Biological target: Cdc42 (Homo sapiens) (UniProt P60953)
Sequence of UniProt P60953 (P60953 1-188): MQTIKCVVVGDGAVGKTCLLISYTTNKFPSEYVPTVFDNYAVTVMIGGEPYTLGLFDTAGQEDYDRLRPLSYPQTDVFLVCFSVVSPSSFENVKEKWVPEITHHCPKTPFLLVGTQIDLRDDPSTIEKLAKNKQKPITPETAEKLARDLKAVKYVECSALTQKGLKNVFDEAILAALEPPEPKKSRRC

pKd: 7.13
Substance: WASP (from UniProt P42768)
